Assay results taken from patent publication US20260250418A1.

Columns and labels:
[1] = biological target: human HER3 on CHO-hHER3 cells (human) (UniProt P21860); experiment: flow cytometry, transfected CHO cells
[2] = biological target: mouse HER3 on CHO-mHER3 cells (mouse) (UniProt Q61526); experiment: flow cytometry, transfected CHO cells
[3] = biological target: dog HER3 on CHO-dHER3 cells (dog); experiment: flow cytometry, transfected CHO cells
[4] = biological target: monkey (Macaca fascicularis) HER3 on CHO-fasHER3 cells (monkey (Macaca fascicularis)); experiment: flow cytometry, transfected CHO cells
[5] = biological target: monkey MET on NIH3T3-fasMET cells (monkey) (UniProt A0M8R7); experiment: flow cytometry, transfected NIH3T3 cells
Sequence of monkey MET on NIH3T3-fasMET cells (monkey) (A0M8R7 25-1381 S170N/I621T limits assumed): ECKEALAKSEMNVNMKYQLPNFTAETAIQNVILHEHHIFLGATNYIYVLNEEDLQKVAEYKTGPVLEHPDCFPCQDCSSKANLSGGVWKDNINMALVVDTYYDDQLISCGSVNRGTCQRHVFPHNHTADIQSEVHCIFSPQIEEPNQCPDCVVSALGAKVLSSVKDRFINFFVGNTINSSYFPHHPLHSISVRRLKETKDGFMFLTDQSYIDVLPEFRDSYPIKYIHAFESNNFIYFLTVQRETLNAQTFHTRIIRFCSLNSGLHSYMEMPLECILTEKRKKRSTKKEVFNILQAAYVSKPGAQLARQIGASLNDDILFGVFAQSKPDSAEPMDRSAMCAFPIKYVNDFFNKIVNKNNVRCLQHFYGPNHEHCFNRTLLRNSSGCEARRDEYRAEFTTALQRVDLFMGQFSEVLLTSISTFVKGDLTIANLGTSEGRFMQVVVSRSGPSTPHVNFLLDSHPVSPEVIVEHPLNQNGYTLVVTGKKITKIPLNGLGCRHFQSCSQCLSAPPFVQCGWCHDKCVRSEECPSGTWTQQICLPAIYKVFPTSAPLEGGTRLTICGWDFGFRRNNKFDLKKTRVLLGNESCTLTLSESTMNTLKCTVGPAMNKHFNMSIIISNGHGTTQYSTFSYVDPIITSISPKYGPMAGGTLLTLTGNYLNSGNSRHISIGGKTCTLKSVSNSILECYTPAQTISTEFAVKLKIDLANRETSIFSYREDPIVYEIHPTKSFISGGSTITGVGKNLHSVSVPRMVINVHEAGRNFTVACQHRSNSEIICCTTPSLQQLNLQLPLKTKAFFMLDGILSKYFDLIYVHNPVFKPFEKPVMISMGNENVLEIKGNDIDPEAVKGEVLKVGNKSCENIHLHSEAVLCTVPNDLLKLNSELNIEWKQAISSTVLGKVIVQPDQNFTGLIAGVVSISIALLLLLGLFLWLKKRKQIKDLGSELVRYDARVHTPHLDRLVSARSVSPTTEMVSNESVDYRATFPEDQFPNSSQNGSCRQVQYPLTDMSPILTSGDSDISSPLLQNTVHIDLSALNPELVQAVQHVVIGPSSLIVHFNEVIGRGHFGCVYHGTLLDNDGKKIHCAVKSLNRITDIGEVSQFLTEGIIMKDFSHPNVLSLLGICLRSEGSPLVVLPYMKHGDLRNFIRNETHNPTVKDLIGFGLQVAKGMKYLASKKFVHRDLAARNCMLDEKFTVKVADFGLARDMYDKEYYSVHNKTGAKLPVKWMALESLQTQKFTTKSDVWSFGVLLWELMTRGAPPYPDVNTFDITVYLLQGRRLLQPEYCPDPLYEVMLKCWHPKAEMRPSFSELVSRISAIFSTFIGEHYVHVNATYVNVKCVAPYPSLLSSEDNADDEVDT

[6] = biological target: human MET on NIH3T3-hMET cells (human) (UniProt P08581); experiment: flow cytometry, transfected NIH3T3 cells
Sequence of human MET on NIH3T3-hMET cells (human) (P08581 25-1390 limits assumed): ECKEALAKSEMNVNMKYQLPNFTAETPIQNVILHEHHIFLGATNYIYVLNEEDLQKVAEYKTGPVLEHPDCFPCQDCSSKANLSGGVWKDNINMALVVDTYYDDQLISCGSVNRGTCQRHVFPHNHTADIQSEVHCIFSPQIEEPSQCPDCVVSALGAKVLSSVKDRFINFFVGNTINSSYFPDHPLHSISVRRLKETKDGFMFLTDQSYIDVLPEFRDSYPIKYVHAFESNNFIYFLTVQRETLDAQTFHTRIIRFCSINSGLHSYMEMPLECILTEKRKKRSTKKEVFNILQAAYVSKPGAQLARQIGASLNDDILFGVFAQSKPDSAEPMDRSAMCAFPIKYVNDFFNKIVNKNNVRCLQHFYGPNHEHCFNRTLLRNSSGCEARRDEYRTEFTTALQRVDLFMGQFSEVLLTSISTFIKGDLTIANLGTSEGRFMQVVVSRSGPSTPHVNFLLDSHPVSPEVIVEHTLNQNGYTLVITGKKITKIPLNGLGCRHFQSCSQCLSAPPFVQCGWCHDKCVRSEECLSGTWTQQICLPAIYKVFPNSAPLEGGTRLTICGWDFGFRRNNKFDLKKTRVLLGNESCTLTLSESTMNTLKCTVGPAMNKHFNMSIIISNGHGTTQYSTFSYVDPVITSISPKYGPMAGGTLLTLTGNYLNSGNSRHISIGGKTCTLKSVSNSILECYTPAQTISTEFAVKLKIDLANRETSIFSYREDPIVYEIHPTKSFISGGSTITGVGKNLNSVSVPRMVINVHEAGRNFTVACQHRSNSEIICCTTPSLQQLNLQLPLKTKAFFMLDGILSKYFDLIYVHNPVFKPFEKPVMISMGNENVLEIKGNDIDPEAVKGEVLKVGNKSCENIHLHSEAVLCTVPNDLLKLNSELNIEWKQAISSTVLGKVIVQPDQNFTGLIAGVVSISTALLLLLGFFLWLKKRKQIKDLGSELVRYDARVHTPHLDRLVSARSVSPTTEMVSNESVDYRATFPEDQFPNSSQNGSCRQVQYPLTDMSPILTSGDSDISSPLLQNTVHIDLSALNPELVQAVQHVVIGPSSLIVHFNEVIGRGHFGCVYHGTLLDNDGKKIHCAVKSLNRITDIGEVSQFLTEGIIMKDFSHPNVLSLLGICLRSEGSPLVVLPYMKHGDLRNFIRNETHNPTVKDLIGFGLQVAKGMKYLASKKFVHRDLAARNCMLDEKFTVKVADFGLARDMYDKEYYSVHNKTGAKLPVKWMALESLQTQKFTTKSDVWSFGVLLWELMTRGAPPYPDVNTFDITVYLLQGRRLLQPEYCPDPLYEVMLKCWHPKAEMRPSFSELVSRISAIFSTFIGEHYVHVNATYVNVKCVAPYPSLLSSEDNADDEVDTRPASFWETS

Sequence of mouse HER3 on CHO-mHER3 cells (mouse) (Q61526 20-641): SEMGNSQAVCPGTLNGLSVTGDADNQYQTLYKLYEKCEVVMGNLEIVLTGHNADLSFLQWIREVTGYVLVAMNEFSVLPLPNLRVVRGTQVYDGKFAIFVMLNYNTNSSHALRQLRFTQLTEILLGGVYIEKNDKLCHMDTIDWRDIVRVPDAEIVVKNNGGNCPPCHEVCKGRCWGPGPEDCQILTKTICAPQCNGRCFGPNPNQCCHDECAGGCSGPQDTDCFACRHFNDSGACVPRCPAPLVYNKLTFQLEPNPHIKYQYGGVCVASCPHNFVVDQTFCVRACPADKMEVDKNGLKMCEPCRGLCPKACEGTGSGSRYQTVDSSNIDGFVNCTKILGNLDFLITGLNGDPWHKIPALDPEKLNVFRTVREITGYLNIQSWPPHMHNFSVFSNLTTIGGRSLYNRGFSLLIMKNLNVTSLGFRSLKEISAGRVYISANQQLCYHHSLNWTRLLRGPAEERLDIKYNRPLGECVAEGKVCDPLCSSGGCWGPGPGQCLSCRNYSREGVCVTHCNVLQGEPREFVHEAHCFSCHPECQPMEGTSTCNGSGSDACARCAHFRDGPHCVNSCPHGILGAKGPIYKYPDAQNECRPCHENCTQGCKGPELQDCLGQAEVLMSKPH

Row | Percentage of Positive Cells [1] [%] | Positive Cells [1] [%] | Percentage of Positive Cells [2] [%] | Percentage of Positive Cells [3] [%] | Percentage of Positive Cells [4] [%] | Positive Cells [4] [%] | Positive Cells [5] [%] | Positive Cells [6] [%] | Substance
1 | 0.4 | 2.1 | 0.2 | 1 | 0.2 | 3.2 | 0.5 | 3.9 | NC
2 | 1.7 | 2.8 | 0.5 | 1.6 | 0.9 | 2.7 | 0.6 | 2.4 | NC + secondary antibody
